From US20120015885A1 (published 2012)
Blank lines part the entries; values can stand above or below the binder they belong to.

Assays:
[1] = molecular target: calcium/calmodulin (CaM)-dependent protein kinase II (CaMKII) (UniProt P11275 1-478); assay: cell-based or functional assay
[2] = molecular target: CaMKI; assay: cell-based or functional assay
[3] = molecular target: 2-chloro-(ε-amino-Lys75)-[6-(4-N,N-diethylaminophenyl)-1,3,5-triazin-4-yl]calmodulin (TA-CaM) (UniProt P0DP23 2-149); assay: competition with CBD for TA-CaM, fluorescence
[4] = molecular target: biotinylated CaM (UniProt P0DP23 2-149); assay: slot blot with biotinylated CaM (FIG. 9E) and TA-CaM competition (FIG. 9G)

Sequence of calcium/calmodulin (CaM)-dependent protein kinase II (CaMKII) (P11275 whole entry): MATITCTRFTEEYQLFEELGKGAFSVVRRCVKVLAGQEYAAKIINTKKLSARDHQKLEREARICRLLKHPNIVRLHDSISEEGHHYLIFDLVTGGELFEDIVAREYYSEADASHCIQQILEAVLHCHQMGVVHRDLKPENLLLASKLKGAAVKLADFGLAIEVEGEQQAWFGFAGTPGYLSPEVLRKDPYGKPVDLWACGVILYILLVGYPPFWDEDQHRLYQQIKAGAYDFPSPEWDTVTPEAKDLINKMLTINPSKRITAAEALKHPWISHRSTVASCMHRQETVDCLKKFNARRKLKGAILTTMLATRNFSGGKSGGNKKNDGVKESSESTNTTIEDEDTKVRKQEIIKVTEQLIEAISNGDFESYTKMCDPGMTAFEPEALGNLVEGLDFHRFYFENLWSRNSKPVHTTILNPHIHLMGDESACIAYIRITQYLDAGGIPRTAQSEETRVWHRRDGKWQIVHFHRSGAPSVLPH

- IC50, phosphorylation of syntide 2 by CaMKII [1]: ~0.1 µM
Binder: KRPPKLGQIGRSKRVVIEDDR [CN21]

- IC50, phosphorylation of syntide 2 by CaMKII [1]: ~0.1 µM
- IC50, CaMKI activity [2]: ~36 µM
Binder: KRPPKLGQIGRSKRVVIED [CN19]

- IC50, CaMKII activity towards syntide 2 [1]: ~0.02 µM
- fold increase of potency against CN19 [1]: ~5 fold
- IC50, CaMKI activity [2]: ~18 µM
Binder: KRAPKLGQIGRVKAVVIED [CN19a2v]

- Kd [3]: ~0.001 µM
B1: antCN27 (peptide)
peptide: RQIKIWFQNRRMKWKKRPPKLGQIGRSKRVVIEDDRIDDVLK
notes: a final (K) of ant was replaced by the first K of the CN peptide in the fusion

- binding result [4]: no binding
Binder: KRPPKLGQIGRSKRVVIEDDRIDDVLK (also called CaM-KIINtide) [CN27]

- IC50, phosphorylation of syntide 2 by CaMKII [1]: ~0.1 µM
Binder: KRPPKLGQIGRSKRVVIEDD [CN20]

- IC50, CaMKII activity [1]: ~0.001 µM
Binder: KRAPKLGQIGRQKAVVIED [V12Q mutant of CN19a2v]

- IC50, CaMKII activity [1]: ~0.00075 µM
- fold increase of potency against CN19 [1]: > 125 fold
- selectivity for CaMKII vs CaMKI [1]: ~50000 fold
- IC50, CaMKI activity [2]: ~38 µM
Binder: KRAPKLGQIGRQKAVDIED [CN19o]

- IC50, CaMKII activity [1]: ~0.001 µM
Binder: KRAPKLGQIGRVKAVDIED [V16D mutant of CN19a2v]

- IC50, CaMKII activity [1]: < 0.01 µM
- fold increase of potency against CN19 wild type [1]: > 10 fold
Binder: KRPPKLGQIGRSKAVVIED [CN19 R14A]

- Kd [3]: ~0.005 µM
B2: ant (peptide)
peptide: RQIKIWFQNRRMKWK
notes: whether the free peptide had it is not clear; also called ant peptide; penetratin
